Assay [1] deals with T1, recombinant murine galectin-1 (R&D Systems) (UniProt P16045 2-135).
T1 chain: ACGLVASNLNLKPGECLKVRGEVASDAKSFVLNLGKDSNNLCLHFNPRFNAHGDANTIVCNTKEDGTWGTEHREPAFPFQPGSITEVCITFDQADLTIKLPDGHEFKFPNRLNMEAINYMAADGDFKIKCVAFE
Kind of assay: SPR (BIAcore).

Assay [2] has as its target recombinant human galectin-1 (R&D Systems) (UniProt P09382 2-135). As to the kind of experiment: SPR (BIAcore).

The values that follow come from patent US10519238 (dated 2019).

recombinant human galectin-1 (R&D Systems), sequence (P09382 2-135): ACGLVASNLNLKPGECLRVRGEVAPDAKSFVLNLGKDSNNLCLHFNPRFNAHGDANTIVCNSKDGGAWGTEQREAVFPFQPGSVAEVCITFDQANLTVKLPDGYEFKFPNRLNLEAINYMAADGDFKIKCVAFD

B1: anti-Gal1 monoclonal antibody 8A12.H9.H10 (antibody, V domains shown)
VH: QAYLQQSGAELVRPGASVRMSCKASGYTFTRYNMHWVKQTPRQGLEWIGRIYPGNGDTSYNQKFKGKATLTVDKSSSTAYMQLSSLTSEDSAVYFCTVWDYWGQGTTLTVSS
VL: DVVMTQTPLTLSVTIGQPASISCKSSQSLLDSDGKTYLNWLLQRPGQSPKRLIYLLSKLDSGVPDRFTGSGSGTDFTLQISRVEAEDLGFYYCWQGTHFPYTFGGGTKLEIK
On to B1, for which the Kd in assay [1] was determined as 26.6 nM; in assay [2] it was 71 nM.
